Experiments:
[1] = target: T1, Human interferon-gamma receptor chain-1 (human (endogenous in WISH)) (UniProt P15260)
T1 sequence: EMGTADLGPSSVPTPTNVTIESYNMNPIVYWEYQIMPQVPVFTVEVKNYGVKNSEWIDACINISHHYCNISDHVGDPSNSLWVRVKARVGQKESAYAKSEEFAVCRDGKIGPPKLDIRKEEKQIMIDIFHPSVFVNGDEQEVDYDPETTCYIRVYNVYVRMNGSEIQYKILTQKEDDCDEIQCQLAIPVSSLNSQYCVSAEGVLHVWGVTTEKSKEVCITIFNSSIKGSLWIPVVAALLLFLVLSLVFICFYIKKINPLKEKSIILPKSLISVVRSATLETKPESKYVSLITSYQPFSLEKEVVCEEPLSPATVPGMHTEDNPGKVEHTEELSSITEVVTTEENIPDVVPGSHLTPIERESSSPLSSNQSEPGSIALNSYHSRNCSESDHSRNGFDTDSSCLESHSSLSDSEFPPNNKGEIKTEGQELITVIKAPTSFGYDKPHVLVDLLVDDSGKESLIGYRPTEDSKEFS

[2] = target: T1, Human interferon-gamma receptor chain-1 (human (endogenous in WISH)); remark: listed apart in the source

Human interferon-gamma, sequence (P01579 24-161): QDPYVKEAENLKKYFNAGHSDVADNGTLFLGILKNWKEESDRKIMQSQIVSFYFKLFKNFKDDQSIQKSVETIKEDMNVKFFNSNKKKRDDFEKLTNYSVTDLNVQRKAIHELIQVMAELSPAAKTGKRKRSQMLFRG

An antiproliferative activity of hIFN γ (15 ng/mL) by modified kynurenine bioassay, optical density at 490 nm, WISH cells cultured with 30 mM NaClO3 [1] of 0.051 OD 490 nm, an antiproliferative activity of hIFN γ (15 ng/mL) by modified kynurenine bioassay, optical density at 490 nm, untreated WISH cells [1] of 0.377 OD 490 nm and a lowering of the biological activity (hIFN γ signal, kynurenine bioassay) in WISH cells cultured with NaClO3 against untreated cells [1] of 86% were found for “Human interferon-gamma (from UniProt P01579 24-161) (ligand)” in this work. For the same substance, the ratio of pSTAT1 to total STAT1 (Western blot, normalised to β-actin) in hIFN γ-stimulated WISH cells cultured under standard conditions (control) (ratio pSTAT1/STAT1) [2] was 3.14 and the ratio of pSTAT1 to total STAT1 (Western blot, normalised to β-actin) in hIFN γ-stimulated WISH cells cultured with 30 mM NaClO3 (reduced HS sulfation) (ratio pSTAT1/STAT1) [2] was 1.7.

From paper PMC9408938
